Experimental data reported in the Immune Epitope Database (IEDB).
pIC50, pKd: −log10 of the molar value.

Legend:
HLA-A*02:02 [1] = experiment: IEDB peptide-MHC binding, purified MHC/competitive/radioactivity; ≥ and ≤ were set here for values at or beyond the usual limits of such assays; details: source organism: Hepatitis C virus (isolate H77)
HLA-A*02:06 [2] = experiment: as above; details: source organism: Hepatitis C virus (isolate H77)
HLA-A*02:03 [3] = experiment: as above; details: source organism: Hepatitis C virus (isolate H77)
HLA-B*35:01 = experiment: IEDB peptide-MHC binding, purified MHC/competitive/radioactivity; filed as Kd, often an IC50 or EC50 that approximates it; ≥ and ≤ were set here for values at or beyond the usual limits of such assays; details: source organism: Hepatitis C virus (isolate 1)
HLA-A*02:02 [4] = experiment: as above; details: source organism: Hepatitis C virus (isolate 1)
HLA-B*44:02 = experiment: as above; details: source organism: Hepatitis C virus (isolate 1)
HLA-B*44:03 = experiment: as above; details: source organism: Hepatitis C virus (isolate 1)
HLA-A*02:06 [5] = experiment: as above; details: source organism: Hepatitis C virus (isolate 1)
HLA-A*11:01 = experiment: as above; details: source organism: Hepatitis C virus (isolate 1)
HLA-A*31:01 = experiment: as above; details: source organism: Hepatitis C virus (isolate 1)
HLA-A*03:01 [6] = experiment: as above; details: source organism: Hepatitis C virus (isolate 1)
HLA-B*08:01 = experiment: as above; details: source organism: Hepatitis C virus (isolate 1)
HLA-B*51:01 = experiment: as above; details: source organism: Hepatitis C virus (isolate 1)
HLA-A*33:01 = experiment: as above; details: source organism: Hepatitis C virus (isolate 1)
HLA-A*01:01 [7] = experiment: as above; details: source organism: Hepatitis C virus (isolate 1)
HLA-B*53:01 = experiment: as above; details: source organism: Hepatitis C virus (isolate 1)
HLA-B*54:01 = experiment: as above; details: source organism: Hepatitis C virus (isolate 1)
HLA-B*07:02 = experiment: as above; details: source organism: Hepatitis C virus (isolate 1)
HLA-B*40:02 [8] = experiment: as above; details: source organism: Hepatitis C virus (isolate 1)
HLA-A*02:03 [9] = experiment: as above; details: source organism: Hepatitis C virus (isolate 1)
HLA-B*40:01 = experiment: as above; details: source organism: Hepatitis C virus (isolate 1)
HLA-B*18:01 = experiment: as above; details: source organism: Hepatitis C virus (isolate 1)
HLA-A*68:01 = experiment: as above; details: source organism: Hepatitis C virus (isolate 1)
HLA-A*68:02 = experiment: as above; details: source organism: Hepatitis C virus (isolate 1)
HLA-B*27:05 = experiment: IEDB peptide-MHC binding, purified MHC/competitive/radioactivity; ≥ and ≤ were set here for values at or beyond the usual limits of such assays; details: source organism: Human papillomavirus 16
HLA-B*40:02 [10] = experiment: IEDB peptide-MHC binding, cellular MHC/competitive/fluorescence; ≥ and ≤ were set here for values at or beyond the usual limits of such assays; details: source organism: Homo sapiens
HLA-A*24:02 = experiment: IEDB peptide-MHC binding, purified MHC/competitive/radioactivity; ≥ and ≤ were set here for values at or beyond the usual limits of such assays; details: source organism: Homo sapiens
HLA-B*15:01 = experiment: IEDB peptide-MHC binding, purified MHC/competitive/fluorescence; filed as Kd, often an IC50 or EC50 that approximates it; ≥ and ≤ were set here for values at or beyond the usual limits of such assays; details: source organism: Yersinia pseudotuberculosis IP 31758
HLA-B*83:01 = experiment: as above; details: source organism: Yersinia pseudotuberculosis IP 31758
HLA-A*03:01 [11] = experiment: as above; details: source organism: Yersinia pseudotuberculosis IP 31758
HLA-B*15:42 = experiment: as above; details: source organism: Yersinia pseudotuberculosis IP 31758
HLA-C*04:01 = experiment: as above; details: source organism: Yersinia pseudotuberculosis IP 31758
HLA-B*45:06 = experiment: as above; details: source organism: Yersinia pseudotuberculosis IP 31758
HLA-A*01:01 [12] = experiment: as above; details: source organism: Yersinia pseudotuberculosis IP 31758
HLA-B*58:01 = experiment: as above; details: source organism: Yersinia pseudotuberculosis IP 31758
HLA-A*68:23 = experiment: as above; details: source organism: Yersinia pseudotuberculosis IP 31758

## KLVALGINAV
HLA-A*02:02 [1]
  pIC50: 7.82
HLA-A*02:06 [2]
  pIC50: 8.43
HLA-A*02:03 [3]
  pIC50: 7.12
HLA-B*35:01
  pKd: ≤ 4.16
HLA-A*02:02 [4]
  pKd: 7.08
HLA-B*44:02
  pKd: ≤ 4.15
HLA-B*44:03
  pKd: ≤ 4.15
HLA-A*02:06 [5]
  pKd: 8.40
HLA-A*11:01
  pKd: ≤ 4.16
HLA-A*31:01
  pKd: 4.87
HLA-A*03:01 [6]
  pKd: 4.78
HLA-B*08:01
  pKd: ≤ 4.15
HLA-B*51:01
  pKd: ≤ 4.33
HLA-A*33:01
  pKd: ≤ 4.15
HLA-A*01:01 [7]
  pKd: 5.05
HLA-B*53:01
  pKd: ≤ 4.16
HLA-B*54:01
  pKd: 4.72
HLA-B*07:02
  pKd: 5.66
HLA-B*40:02 [8]
  pKd: ≤ 4.15
HLA-A*02:03 [9]
  pKd: 7.95
HLA-B*40:01
  pKd: ≤ 4.16
HLA-B*18:01
  pKd: ≤ 4.15
HLA-A*68:01
  pKd: ≤ 4.15
HLA-A*68:02
  pKd: 4.89

## YRHYCYSL
HLA-B*27:05
  pIC50: 7.92

## KEHSLQVSP
HLA-B*40:02 [10]
  pIC50: 5.72

## KYAGESFPGI
HLA-A*24:02
  pIC50: 6.08

## RQIRMTSTI
HLA-B*15:01
  pKd: 6.79
HLA-B*83:01
  pKd: ≤ 5.30
HLA-A*03:01 [11]
  pKd: ≤ 4.70
HLA-B*15:42
  pKd: ≤ 5.30
HLA-C*04:01
  pKd: ≤ 5.30
HLA-B*45:06
  pKd: ≤ 5.30
HLA-A*01:01 [12]
  pKd: 5.52
HLA-B*58:01
  pKd: 6.21
HLA-A*68:23
  pKd: 6.37
